Experimental data taken from article PMC4802922.

Biological target: Dnmt3a-CD wt;Dnmt3L (Mus musculus;) (UniProt O88508+Q9CWR8)
Assay: 2-aminopurine fluorescence (base flipping)
Conditions: 0.1 mM AdoMet; N15 of strand 1 = 2-aminopurine (replaces target C); C15 of strand 2 = 5-methylcytosine; Fluorescence polarization: 10 nM duplex, 0.1 mM AdoHcy, Dnmt3a reaction buffer (composition not given), 25 °C; enzyme up to 600-800 nM

Dnmt3a-CD wt;Dnmt3L (Mus musculus;), sequence (O88508 608-908, chain 1 of 2): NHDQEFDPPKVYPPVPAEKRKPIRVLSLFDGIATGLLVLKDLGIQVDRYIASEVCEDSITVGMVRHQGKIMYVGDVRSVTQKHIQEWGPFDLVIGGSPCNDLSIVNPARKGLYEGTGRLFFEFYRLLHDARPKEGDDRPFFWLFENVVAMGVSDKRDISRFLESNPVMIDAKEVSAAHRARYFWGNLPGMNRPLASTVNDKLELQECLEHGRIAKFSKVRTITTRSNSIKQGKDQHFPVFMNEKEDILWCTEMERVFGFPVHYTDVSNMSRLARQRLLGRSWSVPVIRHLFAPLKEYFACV
Dnmt3a-CD wt;Dnmt3L (Mus musculus;), sequence (Q9CWR8 whole entry, chain 2 of 2): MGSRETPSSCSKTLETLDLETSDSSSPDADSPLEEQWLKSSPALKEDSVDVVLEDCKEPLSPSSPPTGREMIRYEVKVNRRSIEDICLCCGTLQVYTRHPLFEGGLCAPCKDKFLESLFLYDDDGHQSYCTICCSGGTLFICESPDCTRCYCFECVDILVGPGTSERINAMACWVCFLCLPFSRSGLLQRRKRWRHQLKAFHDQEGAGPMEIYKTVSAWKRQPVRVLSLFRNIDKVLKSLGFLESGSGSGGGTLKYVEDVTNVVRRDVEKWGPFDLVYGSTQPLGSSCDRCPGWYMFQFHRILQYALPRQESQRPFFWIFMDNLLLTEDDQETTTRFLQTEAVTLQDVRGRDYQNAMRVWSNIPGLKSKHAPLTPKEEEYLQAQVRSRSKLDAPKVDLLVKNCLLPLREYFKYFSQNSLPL

Which binding signal does the source give for “CTGAATACTACTTGNGCTCTCTAACCTGAT / ATCAGGTTAGAGAGCGCAAGTAGTATTCAG [GBGC/CGMG]” here?
Its binding signal is 100%.
